From article PMC6433865

Assays:
[1] = target: T1, C terminus of Hsc70-interacting protein (CHIP) (human), Q9UNE7; experiment: cryo-EM structure; ternary complexes after GraFix, vitrified; Titan Krios 300 kV (Hsp70:p53-TMGST:CHIP, 15 Å) or Talos Arctica 200 kV (Hsp90:p53-TMGST:CHIP, 13 Å); atomic structures docked; conditions: remark: other sources report otherwise
T1 chain: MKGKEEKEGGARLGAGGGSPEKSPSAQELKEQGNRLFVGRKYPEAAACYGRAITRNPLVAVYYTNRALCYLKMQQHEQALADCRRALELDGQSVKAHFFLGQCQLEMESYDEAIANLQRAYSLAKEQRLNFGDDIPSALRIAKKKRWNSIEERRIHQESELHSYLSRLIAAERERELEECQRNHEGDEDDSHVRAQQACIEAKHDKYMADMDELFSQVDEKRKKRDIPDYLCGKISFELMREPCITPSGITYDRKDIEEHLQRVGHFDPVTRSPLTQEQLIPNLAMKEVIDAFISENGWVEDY

[2] = target: T1, C terminus of Hsc70-interacting protein …; experiment: negative-stain electron microscopy, 3D reconstruction; complexes stabilised and isolated by GraFix (10-30% glycerol gradient, 0.15% glutaraldehyde), stained with 2% uranyl acetate, JEOL JEM1010 at 80 kV; atomic structures docked into 19-26 Å volumes; conditions: remark: other sources report otherwise

B1: C terminus of Hsc70-interacting protein (CHIP), Q9UNE7 1-303 (enzyme)
chain: MKGKEEKEGGARLGAGGGSPEKSPSAQELKEQGNRLFVGRKYPEAAACYGRAITRNPLVAVYYTNRALCYLKMQQHEQALADCRRALELDGQSVKAHFFLGQCQLEMESYDEAIANLQRAYSLAKEQRLNFGDDIPSALRIAKKKRWNSIEERRIHQESELHSYLSRLIAAERERELEECQRNHEGDEDDSHVRAQQACIEAKHDKYMADMDELFSQVDEKRKKRDIPDYLCGKISFELMREPCITPSGITYDRKDIEEHLQRVGHFDPVTRSPLTQEQLIPNLAMKEVIDAFISENGWVEDY
[1]
  stoichiometry N: 2
[2]
  stoichiometry N: 2
